The text below walks through data of PMC12520690 (2025).

As usually defined, the Kd is the free concentration of one partner at which half of the binding sites on the other are occupied at equilibrium, for simple one-to-one binding. A high value points to a looser complex.

The assay concerns the target NaV1.5 CTD (Homo sapiens, UniProt Q14524). Description: ITC. In general terms: Isothermal titration calorimetry measures the heat released or taken up as one component is titrated into another.

Chain of NaV1.5 CTD (Q14524 1773-1940): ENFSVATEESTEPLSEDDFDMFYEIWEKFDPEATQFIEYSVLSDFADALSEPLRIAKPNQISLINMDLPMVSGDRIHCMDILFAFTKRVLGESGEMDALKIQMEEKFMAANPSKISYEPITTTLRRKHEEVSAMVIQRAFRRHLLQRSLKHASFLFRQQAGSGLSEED

B1: FGF13 (protein)
chain: MAAAIASSLIRQKRQAREREKSNACKCVSSPSKGKTSCDKNKLNVFSRVKLFGSKKRRRRRPEPQLKGIVTKLYSRQGYHLQLQADGTIDGTKDEDSTYTLFNLIPVGLRVVAIQGVQTKLYLAMNSEGYLYTSELFTPECKFKESVFENYYVTYSSMIYRQQQSGRGWYLGLNKEGEIMKGNHVKKNKPAAHFLPKPLKVAMYKEPSLHDLTEFSRSGSGTPTKSRSVSGVLNGGKSMSHNEST
In turn, B1 displayed a dissociation constant (Kd) of 123 nM.
